These results are taken from US20240101686A1.

Holding throughout (details): remark: other sources report otherwise
For test [1], the target named is human EGFR on cells (human), P00533.
Test [2] concerns the target human EGFR endogenously expressed on A431 cells (human), P00533.
For test [3], the target named is human EGFR on cells (human), P00533. This is another data set of the same source.
The target is the same in test [4]. This is another data set of the same source.

Like-named read-outs stand apart in the source and are kept apart here.

B1: 30D8-hIgG1 (antibody, V domains shown)
VH: EVQLVESGGGLVKPGGSLRLSCEASGFTFSDAWMSWVRQAPGKGLEWVGRIKSKTDGGTTDYVVPLNGRFIISRDDSRNTLYLQLNNLKTEDTAVYYCTTVPGSYGYWGQGTLVTVSS
VL: DIVMTQSPLSLPVTPGEPASISCRSSQSLLHNKRNNYLDWFLQKPGQSPQLLIYLASNRASGVPDRFSGGGSGTDFTLKISRVEAEDVGVYYCMQAQQTPITFGQGTRLEIK
Regarding B1, the results for the Max MFI in test [1], in test [2] and in test [3] were 88, 712 and 143, respectively. In test [4], this molecule registered an Average fluorescence intensity of 528.
